# B1: mAb 109 (antibody, V domains shown)
# VH: QVQLVESGGGVVQPGRSLRLSCVASGFPFRSYGMHWVRQAPGKGLEWVAFIWYDGSNKYYADSVRGRFTISRDNFKKMVYLQMNSLRAEDTAVYYCARDLAGIYAFDVWGQGTVVTVSS
# VL: EIVMTQSPATLSVSPGERATLSCRASQSVSSNLAWYQQKPGQAPRLLIYGASTRATGIPARFSGSGSGTEFTLTVSSLQSEDFAIYYCQQYNNWRPLTFGGGTKVEIK
# Target: human CD3 expressed on cells (human) (UniProt P07766)
# Test: flow cytometry, 25 nM
# Chain of human CD3 expressed on cells (human) (P07766 23-207, chain 1 of 3): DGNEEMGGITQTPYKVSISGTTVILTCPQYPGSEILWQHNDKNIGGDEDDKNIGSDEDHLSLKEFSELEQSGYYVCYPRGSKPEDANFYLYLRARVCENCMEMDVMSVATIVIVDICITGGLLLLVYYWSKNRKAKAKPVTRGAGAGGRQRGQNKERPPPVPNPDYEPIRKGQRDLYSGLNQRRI
# Chain of human CD3 expressed on cells (human) (P04234 22-171, chain 2 of 3, further chain): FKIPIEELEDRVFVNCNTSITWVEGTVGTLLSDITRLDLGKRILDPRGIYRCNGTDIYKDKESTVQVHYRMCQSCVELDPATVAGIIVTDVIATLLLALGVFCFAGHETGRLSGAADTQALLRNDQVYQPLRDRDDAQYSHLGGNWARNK
# Chain of human CD3 expressed on cells (human) (P09693 23-182, chain 3 of 3, further chain): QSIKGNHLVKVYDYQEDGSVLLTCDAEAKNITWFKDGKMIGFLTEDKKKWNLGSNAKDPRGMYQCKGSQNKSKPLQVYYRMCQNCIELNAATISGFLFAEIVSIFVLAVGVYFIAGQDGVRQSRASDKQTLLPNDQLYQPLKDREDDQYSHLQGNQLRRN
binder,measurement,value
B1,Human primary T Cell Binding (FOI),1.4 FOI
